This is an account of results in patent publication US6306622, “cDNA encoding a BMP type II receptor” (The Procter & Gamble Co., dated 2001).

Values joined by “and” are separate entries in the source; they are usually repeats but may differ in a detail not shown here. Equal values may be shown once.

In test [1] the target is T1, mouse BMP receptor kinase protein (m-BRK-3) (mouse).
T1 chain: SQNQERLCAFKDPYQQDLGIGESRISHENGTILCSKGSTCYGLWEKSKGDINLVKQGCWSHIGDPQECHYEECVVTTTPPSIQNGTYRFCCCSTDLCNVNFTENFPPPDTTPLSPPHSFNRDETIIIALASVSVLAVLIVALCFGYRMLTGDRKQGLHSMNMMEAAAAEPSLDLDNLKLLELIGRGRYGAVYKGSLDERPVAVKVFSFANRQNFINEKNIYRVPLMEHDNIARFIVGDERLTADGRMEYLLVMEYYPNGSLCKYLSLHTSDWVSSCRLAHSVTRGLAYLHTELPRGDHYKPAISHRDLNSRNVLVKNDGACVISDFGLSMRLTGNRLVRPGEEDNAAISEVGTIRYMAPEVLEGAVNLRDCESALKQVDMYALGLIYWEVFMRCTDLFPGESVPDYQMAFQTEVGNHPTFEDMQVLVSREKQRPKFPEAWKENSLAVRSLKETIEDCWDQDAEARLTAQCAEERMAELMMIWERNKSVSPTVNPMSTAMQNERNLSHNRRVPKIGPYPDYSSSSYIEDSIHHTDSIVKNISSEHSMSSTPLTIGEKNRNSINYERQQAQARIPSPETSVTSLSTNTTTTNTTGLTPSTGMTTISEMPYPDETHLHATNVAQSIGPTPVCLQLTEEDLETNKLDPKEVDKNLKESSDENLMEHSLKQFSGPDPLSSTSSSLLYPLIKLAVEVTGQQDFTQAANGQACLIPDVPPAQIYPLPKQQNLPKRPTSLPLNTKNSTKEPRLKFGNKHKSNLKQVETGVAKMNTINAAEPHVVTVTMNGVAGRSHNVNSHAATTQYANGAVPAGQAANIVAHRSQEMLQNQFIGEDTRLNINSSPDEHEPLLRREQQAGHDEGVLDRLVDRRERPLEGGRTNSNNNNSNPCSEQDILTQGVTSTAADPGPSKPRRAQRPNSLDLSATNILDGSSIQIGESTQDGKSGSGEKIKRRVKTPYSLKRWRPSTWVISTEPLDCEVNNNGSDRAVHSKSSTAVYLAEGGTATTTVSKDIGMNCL
In words: whole cell binding of [125I]-BMP-4 to COS-1 cells transfected with pJT6-mBRK-3S or pJT6-mBRK-3L. The conditions noted are these: remark: other sources report otherwise; scale: times the level of mock transfected cells.

Another test has as its target T2, [^125 I]-BMP-4 (Homo sapiens (Human), UniProt P12644, 125I label (iodinated with IODOBEADS or by the chloramine-T method)).
T2 sequence: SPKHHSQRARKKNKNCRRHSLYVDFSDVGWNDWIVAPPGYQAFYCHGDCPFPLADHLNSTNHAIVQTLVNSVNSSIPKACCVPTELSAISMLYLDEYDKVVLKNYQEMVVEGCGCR
In words: covalent crosslinking (DSS) to co-transfected COS-1 cells, SDS gel. An excerpt:
COS-1 cells are transfected with the cDNA for m-BRK-3 using the construct pJT6-mBRK-3S, and/or with cDNAs for BRK-1 (using pJT4-J159F) or BRK-2 (using pJT3-BRK-2). The cells are then allowed to bind [^125I]-BMP-4, crosslinked with disuccinimidyl suberate, immunoprecipitated with antibodies to BRK-1 or BRK-2, and subjected to SDS gel electrophoresis. Antisera used are indicated below the lanes: PI, preimmune; 1379, for cells transfected with cDNA for BRK-1; 1380, for cells transfected with cDNA for BRK-2. Position of molecular weight standards is indicated on the left. Left to right, COS-1 cells transfected with BRK-1 plus m-BRK-3 (preimmune serum); BRK-1 alone; BRK-1 plus m-BRK-3; BRK-2 plus m-BRK-3; BRK-2 alone; and BRK-2 plus m-BRK-3 (preimmune serum).
COS-1 cells are transfected with the cDNA for m-BRK-3, using the construct pJT6-mBRK-3 S, and/or with cDNAs for BRK-1 (using pJT4-J159F) or BRK-2 (using pJT3-BRK-2) as described in Example 5. The transfected cells are incubated with [^125I]-BMP-4, crosslinked, and subjected to immunoprecipitation with antibodies to the appropriate type I receptor or preimmune serum as described in example 8, except that DSS is used as the crosslinking agent rather than disuccinimidyl glutarate. In cells transfected with cDNA for BRK-1 alone, a single band is precipitated by antibodies to BRK-1, migrating at an apparent molecular weight of 81 kD. […]

B1: [^125 I]-BMP-4, P12644 (ligand)
chain: SPKHHSQRARKKNKNCRRHSLYVDFSDVGWNDWIVAPPGYQAFYCHGDCPFPLADHLNSTNHAIVQTLVNSVNSSIPKACCVPTELSAISMLYLDEYDKVVLKNYQEMVVEGCGCR
modifications: here or on the partner: 125I label (iodinated with IODOBEADS or by the chloramine-T method)
Turning to B1, in test [1], the specific binding, times the level seen with mock transfected cells was 4 and 4 to 7.

B2: m-BRK-3/BRK-1 complex (receptor)
chain 1: SQNQERLCAFKDPYQQDLGIGESRISHENGTILCSKGSTCYGLWEKSKGDINLVKQGCWSHIGDPQECHYEECVVTTTPPSIQNGTYRFCCCSTDLCNVNFTENFPPPDTTPLSPPHSFNRDETIIIALASVSVLAVLIVALCFGYRMLTGDRKQGLHSMNMMEAAAAEPSLDLDNLKLLELIGRGRYGAVYKGSLDERPVAVKVFSFANRQNFINEKNIYRVPLMEHDNIARFIVGDERLTADGRMEYLLVMEYYPNGSLCKYLSLHTSDWVSSCRLAHSVTRGLAYLHTELPRGDHYKPAISHRDLNSRNVLVKNDGACVISDFGLSMRLTGNRLVRPGEEDNAAISEVGTIRYMAPEVLEGAVNLRDCESALKQVDMYALGLIYWEVFMRCTDLFPGESVPDYQMAFQTEVGNHPTFEDMQVLVSREKQRPKFPEAWKENSLAVRSLKETIEDCWDQDAEARLTAQCAEERMAELMMIWERNKSVSPTVNPMSTAMQNERNLSHNRRVPKIGPYPDYSSSSYIEDSIHHTDSIVKNISSEHSMSSTPLTIGEKNRNSINYERQQAQARIPSPETSVTSLSTNTTTTNTTGLTPSTGMTTISEMPYPDETHLHATNVAQSIGPTPVCLQLTEEDLETNKLDPKEVDKNLKESSDENLMEHSLKQFSGPDPLSSTSSSLLYPLIKLAVEVTGQQDFTQAANGQACLIPDVPPAQIYPLPKQQNLPKRPTSLPLNTKNSTKEPRLKFGNKHKSNLKQVETGVAKMNTINAAEPHVVTVTMNGVAGRSHNVNSHAATTQYANGAVPAGQAANIVAHRSQEMLQNQFIGEDTRLNINSSPDEHEPLLRREQQAGHDEGVLDRLVDRRERPLEGGRTNSNNNNSNPCSEQDILTQGVTSTAADPGPSKPRRAQRPNSLDLSATNILDGSSIQIGESTQDGKSGSGEKIKRRVKTPYSLKRWRPSTWVISTEPLDCEVNNNGSDRAVHSKSSTAVYLAEGGTATTTVSKDIGMNCL
chain 2: QNLDSMLHGTGMKSDLDQKKPENGVTLAPEDTLPFLKCYCSGHCPDDAINNTCITNGHCFAIIEEDDQGETTLTSGCMKYEGSDFQCKDSPKAQLRRTIECCRTNLCNQYLQPTLPPVVIGPFFDGSIRWLVVLISMAVCIVAMIIFSSCFCYKHYCKSISSRGRYNRDLEQDEAFIPVGESLKDLIDQSQSSGSGSGLPLLVQRTIAKQIQMVRQVGKGRYGEVWMGKWRGEKVAVKVFFTTEEASWFRETEIYQTVLMRHENILGFIAADIKGTGSWTQLYLITDYHENGSLYDFLKCATLDTRALLKLAYSAACGLCHLHTEIYGTQGKPAIAHRDLKSKNILIKKNGSCCIADLGLAVKFNSDTNEVDIPLNTRVGTKRYMAPEVLDESLNKNHFQPYIMADIYSFGLIIWEMARRCITGGIVEEYQLPYYNMVPSDPSYEDMREVVCVKRLRPIVSNRWNSDECLRAVLKLMSECWAHNPASRLTALRIKKTLAKMVESQDVKI
Regarding B2, the binding result in test [^125 I]-BMP-4 is listed as “binds”.

B3: m-BRK-3/BRK-2 complex (receptor)
chain 1: SQNQERLCAFKDPYQQDLGIGESRISHENGTILCSKGSTCYGLWEKSKGDINLVKQGCWSHIGDPQECHYEECVVTTTPPSIQNGTYRFCCCSTDLCNVNFTENFPPPDTTPLSPPHSFNRDETIIIALASVSVLAVLIVALCFGYRMLTGDRKQGLHSMNMMEAAAAEPSLDLDNLKLLELIGRGRYGAVYKGSLDERPVAVKVFSFANRQNFINEKNIYRVPLMEHDNIARFIVGDERLTADGRMEYLLVMEYYPNGSLCKYLSLHTSDWVSSCRLAHSVTRGLAYLHTELPRGDHYKPAISHRDLNSRNVLVKNDGACVISDFGLSMRLTGNRLVRPGEEDNAAISEVGTIRYMAPEVLEGAVNLRDCESALKQVDMYALGLIYWEVFMRCTDLFPGESVPDYQMAFQTEVGNHPTFEDMQVLVSREKQRPKFPEAWKENSLAVRSLKETIEDCWDQDAEARLTAQCAEERMAELMMIWERNKSVSPTVNPMSTAMQNERNLSHNRRVPKIGPYPDYSSSSYIEDSIHHTDSIVKNISSEHSMSSTPLTIGEKNRNSINYERQQAQARIPSPETSVTSLSTNTTTTNTTGLTPSTGMTTISEMPYPDETHLHATNVAQSIGPTPVCLQLTEEDLETNKLDPKEVDKNLKESSDENLMEHSLKQFSGPDPLSSTSSSLLYPLIKLAVEVTGQQDFTQAANGQACLIPDVPPAQIYPLPKQQNLPKRPTSLPLNTKNSTKEPRLKFGNKHKSNLKQVETGVAKMNTINAAEPHVVTVTMNGVAGRSHNVNSHAATTQYANGAVPAGQAANIVAHRSQEMLQNQFIGEDTRLNINSSPDEHEPLLRREQQAGHDEGVLDRLVDRRERPLEGGRTNSNNNNSNPCSEQDILTQGVTSTAADPGPSKPRRAQRPNSLDLSATNILDGSSIQIGESTQDGKSGSGEKIKRRVKTPYSLKRWRPSTWVISTEPLDCEVNNNGSDRAVHSKSSTAVYLAEGGTATTTVSKDIGMNCL
chain 2: RKEDSEGTAPAPPQKKLSCQCHHHCPEDSVNSTCSTDGYCFTIIEEDDSGGHLVTKGCLGLEGSDFQCRDTPIPHQRRSIECCTGQDYCNKHLHPTLPPLKNRDFAEGNIHHKALLISVTVCSILLVLIIIFCYFRYKRQEARPRYSIGLEQDETYIPPGESLKDLIEQSQSSGSGSGLPLLVQRTIAKQIQMVKQIGKGRYGEVWMGKWRGEKVAVKVFFTTEEASWFRETEIYQTVLMRHENILGFIAADIKGTGSWTQLYLITDYHENGSLYDYLKSTTLDTKGMLKLAYSSVSGLCHLHTGIFSTQGKPAIAHRDLKSKNILVKKNGTCCIADLGLAVKFISDTNEVDIPPNTRVGTKRYMPPEVLDESLNRNHFQSYIMADMYSFGLILWEIARRCVSGGIVEEYQLPYHDLVPSDPSYEDMREIVCIKRLRPSFPNRWSSDECLRQMGKLMMECWAHNPASRLTALRVKKTLAKMSESQDIKL
Take B3: the binding result in test [^125 I]-BMP-4 was “binds”.
